Non-standard residues stand in square brackets, D forms with d. Cit = NC(=O)NCCC[C@H](N)C(=O)O
Target: T1, murine E^d MHC class II allele (Mus musculus, UniProt P01904+P01915)
T1 sequence (P01904 26-255): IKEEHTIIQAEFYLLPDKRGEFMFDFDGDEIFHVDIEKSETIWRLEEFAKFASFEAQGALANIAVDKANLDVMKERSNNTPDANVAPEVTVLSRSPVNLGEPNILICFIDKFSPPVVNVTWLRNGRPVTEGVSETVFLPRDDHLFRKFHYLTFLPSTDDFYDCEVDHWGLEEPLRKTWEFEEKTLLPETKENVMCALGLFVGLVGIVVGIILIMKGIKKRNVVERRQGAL
T1 sequence (P01915 27-264 limits assumed): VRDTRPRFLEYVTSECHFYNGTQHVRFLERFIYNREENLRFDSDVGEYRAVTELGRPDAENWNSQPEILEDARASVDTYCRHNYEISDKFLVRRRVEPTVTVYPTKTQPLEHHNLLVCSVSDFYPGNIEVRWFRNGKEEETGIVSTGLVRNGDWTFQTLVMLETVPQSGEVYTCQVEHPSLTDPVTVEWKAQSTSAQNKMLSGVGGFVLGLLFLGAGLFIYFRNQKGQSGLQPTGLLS
Assay: processed antigen assay, E^d allele (APC pulsed with native HEL)
Assay type: cell-based
Parameters: The A20 and CH27 B cell lymphoma lines express H-2^d and H-2^k alleles, respectively; endogenous in cells; host or cells: A20 B cell lymphoma (mitomycin C-treated or paraformaldehyde-fixed)
Details: AE peptide 64 μM; for T cell response relative to baseline (None = 1.00), E^d: Table 31; for T cell response relative to baseline (None = 1.0), 5 μM HEL E^d, first value / T cell response relative to baseline (None = 1.0), 5 μM HEL E^d, second value / T cell response relative to baseline (None = 1.0), 10 μM HEL E^d, first value / T cell response relative to baseline (None = 1.0), 10 μM HEL E^d, second value / T cell response relative to baseline (None = 1.0), 20 μM HEL E^d, first value / T cell response relative to baseline (None = 1.0), 20 μM HEL E^d, second value: Table 29; for T cell response relative to baseline (None = 1.0), 5 μM HEL E^d, first value / T cell response relative to baseline (None = 1.0), 5 μM HEL E^d, second value: native HEL prepulse 5 μM; for T cell response relative to baseline (None = 1.0), 5 μM HEL E^d, first value / T cell response relative to baseline (None = 1.0), 10 μM HEL E^d, first value / T cell response relative to baseline (None = 1.0), 20 μM HEL E^d, first value: supernatant dilution 1:4 (first value); for T cell response relative to baseline (None = 1.0), 5 μM HEL E^d, second value / T cell response relative to baseline (None = 1.0), 10 μM HEL E^d, second value / T cell response relative to baseline (None = 1.0), 20 μM HEL E^d, second value: supernatant dilution 1:8 (second value)
Description: In a third type of assay, the “processed antigen assay”, certain of the AE101 series of peptides inhibit stimulation of specific T cell hybridomas by antigenic peptides which are derived from the endogenous processing of a native protein antigen. This assay, which is related to the peptide prepulse assay, is performed by incubating APC with native protein antigen for 8 h, after which the pulsed APC are washed and treated with mitomycin C. Those pulsed APC are then combined with AE101 series peptides and T cell hybridomas and are incubated for 24 h. After that incubation, an aliquot of the culture supernatant is transferred to a second culture to measure T cell stimulation, as reflected in the effect of released interleukins on the growth of an interleukin-dependent, indicator cell line. During the 8 h incubation with native protein antigen, the protein antigen is taken into the APC. The native protein enters the processing pathway within the APC, where it is enzymatically cleaved to peptide fragments. Those peptide fragments with high affinity for the particular MHC class II molecules produced by the APC form antigenic peptide/MHC class II complexes which are transported to the cell surface. At the cell surface, the MHC class II molecules are contacted by the AE101 peptides, which cause the release of the antigenic peptide by the same mechanism proposed for the “peptide prepulse” assay above.
The “processed antigen assay” was carried out under essentially the same conditions as the “peptide prepulse assay”, with the following modifications. Untreated APC were incubated at 1×10^6/mL in 24-well plates (1 mL/well) with native protein antigen for 8 h. Following that incubation, the pulsed APC were washed, treated with mitomycin C, and washed again. AE101 series peptide was added at 64 μM, 16 μM, 4 μM, and 1 μM concentrations for 24 h in the presence of the T cell hybridoma specific for the antigenic peptide. Interleukin release from these cultures was measured by proliferation of HT-2 cells to interleukins in supernatants transferred from the primary culture. The baseline T cell response was measured by culturing T hybridoma cells with the native antigen-prepulsed APC in the absence of AE101 series peptides.
The “processed antigen assay” was carried out under essentially the same conditions as the “peptide prepulse” assay, with the following modifications. Untreated APC were incubated at 1×10^6/mL in 24-well plates (1 mL/well) with native protein antigen for 8 h. Following incubation, the pulsed APC were washed, treated with mitomycin C, and were washed again. The assay conditions were then as described for “peptide prepulse” above. The baseline T cell response was measured by culturing T hybridoma cells with the native antigen-prepulsed APC in the absence of AE101 peptides.
Table 2.9: Activities of substitution series at Leucine^80 in AE114 in a processed antigen assay. […] The results in this assay constitute, relatively, a mirror image of the result in the simultaneous assay (Example 1, Table 7) and parallel those of the antigenic peptide prepulse assay (Example 5, Table 24). Untreated APC were incubated with native HEL, instead of antigenic peptide, for 8 h. After incubation, the pulsed cells were washed and mitomycin C treated before being cocultured with AE-peptides and T cell hybridomas. Wells containing only T cells and native HEL-prepulsed APC were used to determine the Baseline response, or 1, in the absence of AE peptides. The concentration of AE peptide used was 64 μM for these assays. The supernatant dilutions used in the HT-2 cell assay were 1:4 (first value) and 1:8 (second value).

[1] = Table 30, native HEL prepulse 10 μM, supernatant dilution 1:8
[2] = native HEL prepulse 10 μM, supernatant dilution 1:4
[3] = Table 32, native HEL prepulse 20 μM, supernatant dilution 1:4

Substance: Ac- (mL) RMKLPK-NH2 [AE174]
- T cell response relative to baseline (None = 1.0), E^d [1]: 0.86

Substance: Ac-ARMKLPKSAK-NH2 [AE120]
- T cell response relative to baseline (None = 1.00), E^d [2]: 0.51

Substance: Ac-ARMKNPK-NH2 [AE345]
- T cell response relative to baseline (None = 1.00), E^d [2]: 0.81

Substance: Ac-ARNKLPK-NH2 [AE344]
- T cell response relative to baseline (None = 1.00), E^d [2]: 0.76

Substance: Ac-ARNKNPF-NH2 [AE347]
- T cell response relative to baseline (None = 1.00), E^d [2]: 0.80

Substance: Ac-ARNKNPK-NH2 [AE346]
- T cell response relative to baseline (None = 1.00), E^d [2]: 0.78

Substance: Ac-LR (mL) KLPK-NH2 [AE302]
- T cell response relative to baseline (None = 1.0), E^d [1]: 0.51

Substance: Ac-LR (mL) KYPK-NH2 [AE303]
- T cell response relative to baseline (None = 1.0), E^d [1]: 0.82

Substance: Ac-LR (mL) KYPk-NH2 [AE305]
- T cell response relative to baseline (None = 1.0), E^d [1]: 0.70

Substance: Ac-LR (mL) KyPK-NH2 [AE304]
- T cell response relative to baseline (None = 1.0), E^d [1]: 0.77

Substance: Ac-LR (mL) KyPk-NH2 [AE306]
- T cell response relative to baseline (None = 1.0), E^d [1]: 0.68

Substance: Ac-LR HArg KLPK-NH2 [AE197]
- T cell response relative to baseline (None = 1.0), E^d [3]: 0.45

Substance: Ac-LR L KLPK-NH2 (Ac-LRLKLPK-NH2; not fully specified; printed as Ac-LR L KLPK-NH2) [AE206]
- T cell response relative to baseline (None = 1.0), E^d [1]: 0.22
- T cell response relative to baseline (None = 1.00), E^d [2]: 0.41
- T cell response relative to baseline (None = 1.0), E^d [3]: 0.46

Substance: Ac-LR N KLPK-NH2 (Ac-LRNKLPK-NH2) [AE202]
- T cell response relative to baseline (None = 1.00), E^d [2]: 0.76

Substance: Ac-LRLK HArg PK-NH2 [AE341]
- T cell response relative to baseline (None = 1.00), E^d [2]: 0.12

Substance: Ac-LRLKWPK-NH2 [AE309]
- T cell response relative to baseline (None = 1.0), E^d [1]: 0.29
- T cell response relative to baseline (None = 1.00), E^d [2]: 0.44
- T cell response relative to baseline (None = 1.0), E^d [3]: 0.55

Substance: Ac-LRLKYPK-NH2 [AE301]
- T cell response relative to baseline (None = 1.0), E^d [1]: 0.19
- T cell response relative to baseline (None = 1.00), E^d [2]: 0.46
- T cell response relative to baseline (None = 1.0), E^d [3]: 0.54

Substance: Ac-LRLKYPk-NH2 [AE307]
- T cell response relative to baseline (None = 1.0), E^d [1]: 0.48

Substance: Ac-LRLKyPK-NH2 [AE308]
- T cell response relative to baseline (None = 1.0), E^d [1]: 0.60

Substance: Ac-LRM M LPK-NH2 (Ac-LRMMLPK-NH2) [AE220]
- T cell response relative to baseline (None = 1.0), E^d [3]: 0.63

Substance: Ac-LRMK (mL) PK-NH2 [AE175]
- T cell response relative to baseline (None = 1.0), E^d [1]: 0.70

Substance: Ac-LRMK Cit PK-NH2 (Ac-LRMK[Cit]PK-NH2; SMILES CSCC[C@H](NC(=O)[C@H](CCCNC(=N)N)NC(=O)[C@H](CC(C)C)NC(C)=O)C(=O)N[C@@H](CCCCN)C(=O)N[C@@H](CCCNC(N)=O)C(=O)N1CCC[C@H]1C(=O)N[C@@H](CCCCN)C(N)=O) [AE226]
- T cell response relative to baseline (None = 1.0), 5 μM HEL E^d, first value: 0.60,
- T cell response relative to baseline (None = 1.0), 5 μM HEL E^d, second value: 0.34
- T cell response relative to baseline (None = 1.0), 10 μM HEL E^d, first value (native HEL prepulse 10 μM): 0.68,
- T cell response relative to baseline (None = 1.0), 10 μM HEL E^d, second value (native HEL prepulse 10 μM): 0.58
- T cell response relative to baseline (None = 1.0), 20 μM HEL E^d, first value (native HEL prepulse 20 μM): 0.95,
- T cell response relative to baseline (None = 1.0), 20 μM HEL E^d, second value (native HEL prepulse 20 μM): 0.87

Substance: Ac-LRMK D PK-NH2 (Ac-LRMKDPK-NH2) [AE230]
- T cell response relative to baseline (None = 1.0), 5 μM HEL E^d, first value: 0.81,
- T cell response relative to baseline (None = 1.0), 5 μM HEL E^d, second value: 0.62
- T cell response relative to baseline (None = 1.0), 10 μM HEL E^d, first value (native HEL prepulse 10 μM): 0.93,
- T cell response relative to baseline (None = 1.0), 10 μM HEL E^d, second value (native HEL prepulse 10 μM): 0.77
- T cell response relative to baseline (None = 1.0), 20 μM HEL E^d, first value (native HEL prepulse 20 μM): 1.1,
- T cell response relative to baseline (None = 1.0), 20 μM HEL E^d, second value (native HEL prepulse 20 μM): 0.98

Substance: Ac-LRMK E PK-NH2 (Ac-LRMKEPK-NH2) [AE231]
- T cell response relative to baseline (None = 1.0), 5 μM HEL E^d, first value: 0.96,
- T cell response relative to baseline (None = 1.0), 5 μM HEL E^d, second value: 0.85
- T cell response relative to baseline (None = 1.0), 10 μM HEL E^d, first value (native HEL prepulse 10 μM): 0.94,
- T cell response relative to baseline (None = 1.0), 10 μM HEL E^d, second value (native HEL prepulse 10 μM): 0.83
- T cell response relative to baseline (None = 1.0), 20 μM HEL E^d, first value (native HEL prepulse 20 μM): 1.0
- T cell response relative to baseline (None = 1.0), 20 μM HEL E^d, second value (native HEL prepulse 20 μM): 1.1

Reference: patent US6835382B2, “Ii peptide therapeutics to enhance antigen presentation” (University of Massachusetts, priority 1996, dated 2004)
